Patent US20180155451A1 (published 2018)

Key:
[1] = target: T1, FcγRIIa R (extracellular domain, C-terminal His tag) (human, UniProt P12318 34-217); test: ratio of He/Con_2aR to He/Con_2b (FcγRIIb); SPR relative binding
T1 construct: extracellular domain; also called FcgRIIa R type; 2aR; not shown: His tag attached to the C terminus
T1 sequence (looked up): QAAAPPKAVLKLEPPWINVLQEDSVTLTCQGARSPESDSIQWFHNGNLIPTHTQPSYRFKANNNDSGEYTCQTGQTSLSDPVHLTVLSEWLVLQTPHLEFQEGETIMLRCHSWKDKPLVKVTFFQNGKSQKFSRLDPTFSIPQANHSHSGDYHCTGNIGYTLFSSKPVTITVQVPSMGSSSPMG
Procedure: (§1) The heterodimerized antibodies He Abs in which one of the H chains was introduced with an alteration were assayed for their binding activities to each activating FcγR and inhibitory FcγR according to the method described in Example 4. […] The activating FcγRs in FIGS. 26, 27, 28, and 29 are FcγRIa, FcγRIIa (R), FcγRIIa (H), and FcγRIIIa, respectively.
(§2) Analysis of interaction between objective antibody and the FcγR was carried out using Biacore T100 (GE Healthcare). HBS-EP+ (GE Healthcare) was used as the running buffer, and the measurement temperature was set to 25° C. Chips produced by immobilizing the antigen peptide by the amine coupling method to a Series S Sencor Chip CM5 (GE Healthcare), or alternatively, chips produced by allowing preliminarily biotinylated antigen peptides to interact with and immobilize onto a Series S Sensor Chip SA (certified) (GE Healthcare) were used. Antibodies of interest were captured onto an antigen peptide-immobilized chip, and allowed to interact to each FcγR diluted with running buffer. To regenerate and repeatedly use the chip, the antibodies captured on the chip were washed off by reacting 10 mM glycine-HCl, pH 1.5.

[2] = target: T1, FcγRIIa R (extracellular domain, …); test: SPR (Biacore), antibody captured on antigen-peptide chip, FcγR as analyte; relative binding amount
Procedure: as §1, §2

[3] = target: T2, FcγRIIb (extracellular domain, C-terminal His tag) (human, UniProt P31994 43-217); test: as above
T2 construct: extracellular domain; also called FcgRIIb; 2b; not shown: His tag attached to the C terminus
T2 sequence (looked up): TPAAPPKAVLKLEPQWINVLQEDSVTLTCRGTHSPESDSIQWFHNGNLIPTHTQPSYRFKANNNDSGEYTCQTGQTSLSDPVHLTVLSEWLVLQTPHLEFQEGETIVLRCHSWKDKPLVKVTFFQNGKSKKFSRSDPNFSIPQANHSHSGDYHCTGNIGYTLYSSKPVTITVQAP
Procedure: as §1, §2

B1: GpH7-A5/GpH7-B3 variant D265_07I/GpL16-k0 (antibody, human IgG1, kappa)
heavy 1: not shown
heavy 2: not shown
light: DIVMTQSPLSLPVTPGEPASISCQASESLVHSNRNTYLHWYLQKPGQSPQLLIYKVSNRFSGVPDRFSGSGSGTDFTLKISRVEAEDVGVYYCSQNTHVPPTFGQGTKVEIERTVAAPSVFIFPPSDEQLKSGTASVVCLLNNFYPREAKVQWKVDNALQSGNSQESVTEQDSKDSTYSLSSTLTLSKADYEKHKVYACEVTHQGLSSPVTKSFNRGEC
notes: Heterodimerized anti-glypican-3 IgG1; alteration in only one H chain (GpH7-B3 side); also called He Ab
**Q.** What does the source list for B1?
**A.** He_2aR/2b (IIaR/IIb) [1]: 2.57; He/Con_2aR [2]: 3.4 % of control (GpH7-A5/GpH7-B3/GpL16-k0 = 100); He/Con_2b [3]: 1.3 % of control (GpH7-A5/GpH7-B3/GpL16-k0 = 100)

B2: GpH7-A5/GpH7-B3 variant D265_08L/GpL16-k0 (antibody, human IgG1, kappa)
heavy 1: not shown
heavy 2: not shown
light: DIVMTQSPLSLPVTPGEPASISCQASESLVHSNRNTYLHWYLQKPGQSPQLLIYKVSNRFSGVPDRFSGSGSGTDFTLKISRVEAEDVGVYYCSQNTHVPPTFGQGTKVEIERTVAAPSVFIFPPSDEQLKSGTASVVCLLNNFYPREAKVQWKVDNALQSGNSQESVTEQDSKDSTYSLSSTLTLSKADYEKHKVYACEVTHQGLSSPVTKSFNRGEC
notes: as for B1
**Q.** How did the “He_2aR/2b (IIaR/IIb)” value [1] turn out when B2 was run?
**A.** Its value is 1.46.

**Q.** What about the He/Con_2aR [2] of the same binder?
**A.** Its He/Con_2aR is 6.6 % of control (GpH7-A5/GpH7-B3/GpL16-k0 = 100).

**Q.** And the He/Con_2b [3]?
**A.** Its He/Con_2b is 4.6 % of control (GpH7-A5/GpH7-B3/GpL16-k0 = 100).

B3: GpH7-A5/GpH7-B3 variant P238_11K/GpL16-k0 (antibody, human IgG1, kappa)
heavy 1: not shown
heavy 2: not shown
light: DIVMTQSPLSLPVTPGEPASISCQASESLVHSNRNTYLHWYLQKPGQSPQLLIYKVSNRFSGVPDRFSGSGSGTDFTLKISRVEAEDVGVYYCSQNTHVPPTFGQGTKVEIERTVAAPSVFIFPPSDEQLKSGTASVVCLLNNFYPREAKVQWKVDNALQSGNSQESVTEQDSKDSTYSLSSTLTLSKADYEKHKVYACEVTHQGLSSPVTKSFNRGEC
notes: as for B1
**Q.** With B3 as the binder, how does the “He_2aR/2b (IIaR/IIb)” value [1] read?
**A.** Its value is 2.03.

**Q.** What about the He/Con_2aR [2] of the same binder?
**A.** Its He/Con_2aR is 36.9 % of control (GpH7-A5/GpH7-B3/GpL16-k0 = 100).

**Q.** And the He/Con_2b [3]?
**A.** The He/Con_2b was 18.1 % of control (GpH7-A5/GpH7-B3/GpL16-k0 = 100).

B4: GpH7-A5/GpH7-B3 variant P238_12R/GpL16-k0 (antibody, human IgG1, kappa)
heavy 1: not shown
heavy 2: not shown
light: DIVMTQSPLSLPVTPGEPASISCQASESLVHSNRNTYLHWYLQKPGQSPQLLIYKVSNRFSGVPDRFSGSGSGTDFTLKISRVEAEDVGVYYCSQNTHVPPTFGQGTKVEIERTVAAPSVFIFPPSDEQLKSGTASVVCLLNNFYPREAKVQWKVDNALQSGNSQESVTEQDSKDSTYSLSSTLTLSKADYEKHKVYACEVTHQGLSSPVTKSFNRGEC
notes: as for B1
**Q.** Which results are given for B4?
**A.** He_2aR/2b (IIaR/IIb) [1]: 1.57; He/Con_2aR [2]: 80.5 % of control (GpH7-A5/GpH7-B3/GpL16-k0 = 100); He/Con_2b [3]: 51.4 % of control (GpH7-A5/GpH7-B3/GpL16-k0 = 100)

B5: GpH7-A5/GpH7-B3 variant P238_13S/GpL16-k0 (antibody, human IgG1, kappa)
heavy 1: not shown
heavy 2: not shown
light: DIVMTQSPLSLPVTPGEPASISCQASESLVHSNRNTYLHWYLQKPGQSPQLLIYKVSNRFSGVPDRFSGSGSGTDFTLKISRVEAEDVGVYYCSQNTHVPPTFGQGTKVEIERTVAAPSVFIFPPSDEQLKSGTASVVCLLNNFYPREAKVQWKVDNALQSGNSQESVTEQDSKDSTYSLSSTLTLSKADYEKHKVYACEVTHQGLSSPVTKSFNRGEC
notes: as for B1
**Q.** Which “He_2aR/2b (IIaR/IIb)” value [1] does the source give for B5 here?
**A.** The value was 1.26.

**Q.** What about the He/Con_2aR [2] of the same binder?
**A.** Its He/Con_2aR is 88.9 % of control (GpH7-A5/GpH7-B3/GpL16-k0 = 100).

**Q.** What about the He/Con_2b [3] of the same binder?
**A.** Its He/Con_2b is 70.4 % of control (GpH7-A5/GpH7-B3/GpL16-k0 = 100).

B6: GpH7-A5/GpH7-B3 variant P238_14T/GpL16-k0 (antibody, human IgG1, kappa)
heavy 1: not shown
heavy 2: not shown
light: DIVMTQSPLSLPVTPGEPASISCQASESLVHSNRNTYLHWYLQKPGQSPQLLIYKVSNRFSGVPDRFSGSGSGTDFTLKISRVEAEDVGVYYCSQNTHVPPTFGQGTKVEIERTVAAPSVFIFPPSDEQLKSGTASVVCLLNNFYPREAKVQWKVDNALQSGNSQESVTEQDSKDSTYSLSSTLTLSKADYEKHKVYACEVTHQGLSSPVTKSFNRGEC
notes: as for B1
**Q.** Which “He_2aR/2b (IIaR/IIb)” value [1] does the source give for B6 here?
**A.** Its value is 1.44.

**Q.** And the He/Con_2aR [2]?
**A.** Its He/Con_2aR is 73.1 % of control (GpH7-A5/GpH7-B3/GpL16-k0 = 100).

**Q.** What about the He/Con_2b [3] of the same binder?
**A.** Its He/Con_2b is 50.7 % of control (GpH7-A5/GpH7-B3/GpL16-k0 = 100).

B7: GpH7-A5/GpH7-B3 variant P238_18N/GpL16-k0 (antibody, human IgG1, kappa)
heavy 1: not shown
heavy 2: not shown
light: DIVMTQSPLSLPVTPGEPASISCQASESLVHSNRNTYLHWYLQKPGQSPQLLIYKVSNRFSGVPDRFSGSGSGTDFTLKISRVEAEDVGVYYCSQNTHVPPTFGQGTKVEIERTVAAPSVFIFPPSDEQLKSGTASVVCLLNNFYPREAKVQWKVDNALQSGNSQESVTEQDSKDSTYSLSSTLTLSKADYEKHKVYACEVTHQGLSSPVTKSFNRGEC
notes: as for B1
**Q.** B7 was tested. Which “He_2aR/2b (IIaR/IIb)” value [1] did it give?
**A.** The value was 1.26.

**Q.** What about the He/Con_2aR [2] of the same binder?
**A.** Its He/Con_2aR is 91.9 % of control (GpH7-A5/GpH7-B3/GpL16-k0 = 100).

**Q.** And the He/Con_2b [3]?
**A.** The He/Con_2b was 73.2 % of control (GpH7-A5/GpH7-B3/GpL16-k0 = 100).

B8: GpH7-A5/GpH7-B3 variant S239_04F/GpL16-k0 (antibody, human IgG1, kappa)
heavy 1: not shown
heavy 2: not shown
light: DIVMTQSPLSLPVTPGEPASISCQASESLVHSNRNTYLHWYLQKPGQSPQLLIYKVSNRFSGVPDRFSGSGSGTDFTLKISRVEAEDVGVYYCSQNTHVPPTFGQGTKVEIERTVAAPSVFIFPPSDEQLKSGTASVVCLLNNFYPREAKVQWKVDNALQSGNSQESVTEQDSKDSTYSLSSTLTLSKADYEKHKVYACEVTHQGLSSPVTKSFNRGEC
notes: Heterodimerized anti-glypican-3 IgG1; also called He Ab
**Q.** With B8 as the binder, how does the “He_2aR/2b (IIaR/IIb)” value [1] read?
**A.** The value was 1.24.

**Q.** What about the He/Con_2aR [2] of the same binder?
**A.** Its He/Con_2aR is 54.8 % of control (GpH7-A5/GpH7-B3/GpL16-k0 = 100).

**Q.** And the He/Con_2b [3]?
**A.** The He/Con_2b was 44.1 % of control (GpH7-A5/GpH7-B3/GpL16-k0 = 100).
